Results: patent US11584772B2, “N4-modified cytidine nucleotides and their use” (VILNIUS UNIVERSITY, priority 2017, dated 2023)

B1: EST: recombinant protein selected from metagenomic library, polyhystidine-tag at the N-terminus; amidase and esterase (protein)
chain: MSSLFIGQVFAKTPEVQTSDLTGNTTCSNLVGMVIPADEIGLPTSGATITSATLKIVEDGAIKDAEYCEVLGAIHPVDPTAPDINFQVNLPTNWNKKFLQFGGGYFNGTVRTGLGNPPAGDRKLGKNTPLAQGYVTFGSDSGNSTAPLDASFGMNDEALKNFAGDQLKKTKDVALALANVRYNAVPDQVYFAGGSEGGREGLFIVQNFPDEYDGVISVYPVLNWIPKALKDNRDAQALYKNDGEGWISPEENDLINETVFKACDSLDGVKDGIISNTSECAEKEDKILDTLSESLSEKQIEVIKSFNGPMEFDIQLANDFTTMPGYSQLQGADIGRLFGTRPIPGVPPVVSESVGHVIDEQDALMGVYSDQVIRYKITRNPDFNTLTFDPNEYREEILKASNLLDVTDPNISEFRENGGKLILVHGTEDEMVAPQGTSDYYSKLVNEFGQESLDEFAQYYLVPGFSHGGGNFTMSANLLGALDAWVVNGDVPSNLVAEDQNSATFGRTRPLCEYPTYPQYNGSGDVNSAASFTCLKADKDKDISASDIQKLIEKFEVDGEFANHGTARSLQAHLDILIKLESQERETVDQIVKHTQKFIKLLDNHKKNGKITDHAYNTLKELAESYIKQIK
modifications: N-terminal His tag; Metagenomic origin
notes: recombinant protein selected from metagenomic library, polyhystidine-tag at the N-terminus; amidase and esterase
B2: D6: recombinant protein selected from metagenomic library, polyhystidine-tag at the N-terminus; amidase and esterase (protein)
chain: MEQLKFQKNWNNKCSCDFFTTIRLKGPKYTVGKELEMRIYKGGVFQNHGMIRVASLRPIQLHQINEWISRLDSGLSPEELRSELFYMYKDKVADVNKVDFYLILCERVKSKPIQNALFSTESTPAHD
modifications: N-terminal His tag; Metagenomic origin
notes: as for B1
B3: YqfB: recombinant protein selected from metagenomic library, polyhystidine-tag at the N-terminus; amidase and esterase (protein, listed as Escherichia coli)
chain: MQPNDITFFQRFQDDILAGRKTITIRDESESHFKTGDVLRVGRFEDDGYFCTIEVTATSTVTLDTLTEKHAEQENMTLTELKKVIADIYPGQTQFYVIEFKCL
modifications: N-terminal His tag
notes: as for B1

Legend:
[1] = tested on: platelets and neutrophils; settings: cited from earlier work
[2] = mice; cited from earlier work
NLRC4 inflammasome = NLRC4 inflammasome (Homo sapiens, UniProt Q9NPP4); settings: cited from earlier work
[3] = cited from earlier work
[4] = esterase activity of purified recombinant proteins; type: biochemical; settings: purified His-tagged recombinant protein
Description: (§1) Then recombinant proteins (EST, D6 and YqfB) having polyhystidine-tag at the N-terminus were purified by affinity chromatography, enzymatic activities of each protein were estimated.

[5] = hydrolysis of the amide bond of modified dCTP by purified recombinant proteins (amidase activity); type: biochemical; settings: purified His-tagged recombinant protein, 37° C., various buffer solutions
Method: as §1
All three selected proteins are able to hydrolyse the amide bond of N^4-modified cytidine nucleotide. The hydrolysis reaction proceeds in various buffer solutions at 37° C. Depending on the concentration of purified protein enzymatic reaction lasts from several minutes to several hours. […] Moreover, these proteins are capable of hydrolysing not only the amide bond of modified dCTP but also the amide bond of modified cytidine.

NLRC4 inflammasome, sequence (Q9NPP4 whole entry): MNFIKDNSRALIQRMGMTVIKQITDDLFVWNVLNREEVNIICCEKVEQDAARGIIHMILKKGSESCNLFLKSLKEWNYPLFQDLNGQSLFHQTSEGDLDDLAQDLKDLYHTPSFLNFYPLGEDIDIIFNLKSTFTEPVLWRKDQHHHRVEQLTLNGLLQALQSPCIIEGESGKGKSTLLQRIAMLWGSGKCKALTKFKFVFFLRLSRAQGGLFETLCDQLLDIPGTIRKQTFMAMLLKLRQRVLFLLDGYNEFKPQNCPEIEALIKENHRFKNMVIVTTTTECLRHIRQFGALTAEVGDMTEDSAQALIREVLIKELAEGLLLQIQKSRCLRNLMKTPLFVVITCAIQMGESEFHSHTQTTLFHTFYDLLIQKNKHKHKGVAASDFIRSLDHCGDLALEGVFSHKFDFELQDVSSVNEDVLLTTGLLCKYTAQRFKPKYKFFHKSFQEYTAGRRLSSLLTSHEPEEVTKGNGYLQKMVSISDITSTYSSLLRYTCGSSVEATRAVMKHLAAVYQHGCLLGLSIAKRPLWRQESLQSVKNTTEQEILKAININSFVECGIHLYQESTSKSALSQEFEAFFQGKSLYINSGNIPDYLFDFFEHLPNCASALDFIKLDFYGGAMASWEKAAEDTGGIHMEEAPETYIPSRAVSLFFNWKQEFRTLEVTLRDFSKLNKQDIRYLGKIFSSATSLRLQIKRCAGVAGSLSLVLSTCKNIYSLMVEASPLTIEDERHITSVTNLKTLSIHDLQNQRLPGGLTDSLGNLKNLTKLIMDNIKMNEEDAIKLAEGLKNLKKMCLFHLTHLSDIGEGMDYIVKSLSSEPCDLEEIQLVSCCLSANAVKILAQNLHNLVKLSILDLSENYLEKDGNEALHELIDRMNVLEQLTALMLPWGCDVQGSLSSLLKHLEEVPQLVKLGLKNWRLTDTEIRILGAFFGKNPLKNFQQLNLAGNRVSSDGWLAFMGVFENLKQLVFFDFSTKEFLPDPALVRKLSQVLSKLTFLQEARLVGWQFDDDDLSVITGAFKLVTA

Molecule	activation of platelets and neutrophils [1]	blood pressure [2]	activation of the NLRC4 inflammasome (NLRC4 inflammasome)	production of IL-1μ [3]	esterase activity [4]	hydrolysis of the amide bond of modified dCTP (activity of amidase) [5]
CC(=O)Nc1ccn([C@@H]2O[C@H](CO)[C@@H](O)[C@H]2O)c(=O)n1 [N^4-acetyl-cytidine]	activates platelets and neutrophils	elevates blood pressure in mice	activates the NLRC4 inflammasome	induces the production of IL-1μ	–	–
B1	–	–	–	–	behave as esterases	hydrolyse the amide bond of modified dCTP
B2	–	–	–	–	behave as esterases	hydrolyse the amide bond of modified dCTP
B3	–	–	–	–	behave as esterases	hydrolyse the amide bond of modified dCTP
